The values that follow come from paper PMC9894248, “Alanine synthesized by alanine dehydrogenase enables ammonium-tolerant nitrogen fixation in Paenibacillus sabinae T27”.

The target in series [1] is T1, GlnR (Paenibacillus sabinae T27, UniProt X4ZZY3 1-136).
T1 sequence: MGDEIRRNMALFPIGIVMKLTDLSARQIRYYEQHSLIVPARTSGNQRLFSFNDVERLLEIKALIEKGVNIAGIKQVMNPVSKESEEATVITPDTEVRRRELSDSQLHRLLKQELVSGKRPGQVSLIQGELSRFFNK
The series is described as follows: EMSA; GlnR 4-1024 nM; EMSA: 20 ul, 1 ug poly[d(A-T)], 0.3 nM probe, 30 min, 25 C; binding buffer (given for protein dialysis) 20 mM HEPES pH 7.6, 1 mM EDTA, 10 mM (NH4)2SO4, 1 mM DTT, 0.2% Tween 20, 30 mM KCl. SPR: SA chip, 250 RU DNA, GlnR 0-500 nM with or without 25 nM GS. The conditions noted are these: protein: recombinant; tags: N-His6; chain copies: 2; label: 3' DIG (Methods); blunt. (Mobility shift assays separate free from complexed probe on a gel.)

In series [2] the target is T1, GlnR. The series is described as follows: SPR; GlnR alone, 0-500 nM; affinity significantly higher than site II; EMSA: 20 ul, 1 ug poly[d(A-T)], 0.3 nM probe, 30 min, 25 C; binding buffer (given for protein dialysis) 20 mM HEPES pH 7.6, 1 mM EDTA, 10 mM (NH4)2SO4, 1 mM DTT, 0.2% Tween 20, 30 mM KCl. SPR: SA chip, 250 RU DNA, GlnR 0-500 nM with or without 25 nM GS. The conditions noted are these: protein: recombinant; tags: N-His6; chain copies: 2; label: 5' biotin on capture linker S3; 3' overhang 20 nt on strand 2, annealed to capture linker (strand 3).

In series [3] the target is T2, AdeR (Paenibacillus sabinae T27, UniProt X4ZCB7 1-417).
T2 sequence: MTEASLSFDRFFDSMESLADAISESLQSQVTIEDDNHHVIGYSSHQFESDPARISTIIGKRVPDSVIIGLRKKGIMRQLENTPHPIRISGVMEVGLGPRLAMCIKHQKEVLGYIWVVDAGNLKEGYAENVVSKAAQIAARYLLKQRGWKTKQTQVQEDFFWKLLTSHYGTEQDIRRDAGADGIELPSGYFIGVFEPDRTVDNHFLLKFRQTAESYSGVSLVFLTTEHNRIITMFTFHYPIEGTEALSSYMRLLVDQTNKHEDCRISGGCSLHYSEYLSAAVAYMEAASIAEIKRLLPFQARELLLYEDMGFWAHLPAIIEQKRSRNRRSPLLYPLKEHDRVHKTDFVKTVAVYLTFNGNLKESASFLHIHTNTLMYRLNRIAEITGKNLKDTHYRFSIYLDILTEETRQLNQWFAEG
The series is described as follows: EMSA; AdeR 100-600 nM; legend misprints 'mutated GlnR-binding site'; EMSA: 20 ul, 1 ug poly[d(A-T)], 0.3 nM probe, 30 min, 25 C; binding buffer (given for protein dialysis) 20 mM HEPES pH 7.6, 1 mM EDTA, 10 mM (NH4)2SO4, 1 mM DTT, 0.2% Tween 20, 30 mM KCl. SPR: SA chip, 250 RU DNA, GlnR 0-500 nM with or without 25 nM GS. Conditions: protein: recombinant; tags: N-His6; label: 3' DIG (Methods); blunt.

The target in series [4] is T2, AdeR. The series is described as follows: EMSA; AdeR 100-600 nM; EMSA: 20 ul, 1 ug poly[d(A-T)], 0.3 nM probe, 30 min, 25 C; binding buffer (given for protein dialysis) 20 mM HEPES pH 7.6, 1 mM EDTA, 10 mM (NH4)2SO4, 1 mM DTT, 0.2% Tween 20, 30 mM KCl. SPR: SA chip, 250 RU DNA, GlnR 0-500 nM with or without 25 nM GS. Conditions: protein: recombinant; tags: N-His6; label: 3' DIG (Methods); blunt.

B1: nif promoter GlnR site I EMSA probe (nifR1) (dsDNA)
DNA 1: AACGGAAACATGATACATATGTGTAATGTAATCTGACATTTGT
DNA 2: ACAAATGTCAGATTACATTACACATATGTATCATGTTTCCGTT
Turning to B1, in the series with GlnR [1], the binding result was “binds”.

B2: nif promoter GlnR site II EMSA probe (nifR2) (dsDNA)
DNA 1: TTTTCAAGAAAGGTTGGAGTCAGGTTAACTGACACGTCGGATG
DNA 2: CATCCGACGTGTCAGTTAACCTGACTCCAACCTTTCTTGAAAA
Regarding B2, the binding result in the series with GlnR [1] is “binds”.

B3: SPR probe GlnR site I (TS1) (dsDNA)
DNA 1: ATACATATGTGTAATGTAATCTGACATTTGTTTTGACGA
DNA 2: TCGTCAAAACAAATGTCAGATTACATTACACATATGTATCCTACCCTACGTCCTCCTGC
DNA 3: GCAGGAGGACGTAGGGTAGG
B3: the binding result with GlnR [2] is “binds”.

B4: ald1 promoter 40-bp mutated AdeR site (aldP1M) (dsDNA)
DNA 1: GAATGAAAAACTGACCTTGGATCCGTGATAAAACACAATC
DNA 2: GATTGTGTTTTATCACGGATCCAAGGTCAGTTTTTCATTC
For B4, in the series with AdeR [3], the binding result is on record as “no binding”.

B5: ald1 promoter 40-bp AdeR site (aldP1) (dsDNA)
DNA 1: GAATGAAAAACTGACCTTCTCATTGTGATAAAACACAATC
DNA 2: GATTGTGTTTTATCACAATGAGAAGGTCAGTTTTTCATTC
In the case of B5, in the series with AdeR [4], the binding result was “binds”.
